One data set has as its target T1, POPDC2 p.W188X-VN155 (human, UniProt Q9HBU9 1-187).
T1 sequence (looked up): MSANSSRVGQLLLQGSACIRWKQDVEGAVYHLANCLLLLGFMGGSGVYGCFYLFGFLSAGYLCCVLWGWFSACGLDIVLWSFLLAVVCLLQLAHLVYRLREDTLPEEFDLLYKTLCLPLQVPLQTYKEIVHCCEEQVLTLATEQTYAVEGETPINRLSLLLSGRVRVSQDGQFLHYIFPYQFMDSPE
Nature of the data set: split reporter.

The data set “FRET or BRET” deals with the molecule itself. Nature of the data set: FRET or BRET.
Data set [1] deals with the molecule itself. Nature of the data set: SDS-PAGE and Western blot of oligomer bands that withstand SDS.
For the next data set, the target named is T2, POPDC2-VN155 (human, UniProt Q9HBU9 1-364).
T2 sequence (looked up): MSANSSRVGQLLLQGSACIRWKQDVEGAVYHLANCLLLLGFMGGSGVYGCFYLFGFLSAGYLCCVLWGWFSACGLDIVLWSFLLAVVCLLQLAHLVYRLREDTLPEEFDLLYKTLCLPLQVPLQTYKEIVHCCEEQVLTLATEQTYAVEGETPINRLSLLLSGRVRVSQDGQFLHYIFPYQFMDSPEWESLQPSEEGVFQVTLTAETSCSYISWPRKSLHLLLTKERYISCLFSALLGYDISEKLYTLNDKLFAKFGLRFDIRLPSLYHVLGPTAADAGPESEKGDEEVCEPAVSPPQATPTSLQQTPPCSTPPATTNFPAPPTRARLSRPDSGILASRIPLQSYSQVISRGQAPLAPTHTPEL
Nature of the data set: split reporter.

B1: POPDC1-VC155 (natural protein, human, UniProt Q8NE79 1-360, looked up)
chain: MNYTESSPLRESTAIGFTPELESIIPVPSNKTTCENWREIHHLVFHVANICFAVGLVIPTTLHLHMIFLRGMLTLGCTLYIVWATLYRCALDIMIWNSVFLGVNILHLSYLLYKKRPVKIEKELSGMYRRLFEPLRVPPDLFRRLTGQFCMIQTLKKGQTYAAEDKTSVDDRLSILLKGKMKVSYRGHFLHNIYPCAFIDSPEFRSTQMHKGEKFQVTIIADDNCRFLCWSRERLTYFLESEPFLYEIFRYLIGKDITNKLYSLNDPTLNDKKAKKLEHQLSLCTQISMLEMRNSIASSSDSDDGLHQFLRGTSSMSSLHVSSPHQRASAKMKPIEEGAEDDDDVFEPASPNTLKVHQLP
Turning to B1, the “BiFC signal relative to the wild-type pair” value with POPDC2 p.W188X-VN155 was found to be 0.59.

B2: POPDC1 with C-terminal NanoLuc or HaloTag (NanoBRET constructs) (natural protein, human, UniProt Q8NE79 1-360, looked up)
chain: MNYTESSPLRESTAIGFTPELESIIPVPSNKTTCENWREIHHLVFHVANICFAVGLVIPTTLHLHMIFLRGMLTLGCTLYIVWATLYRCALDIMIWNSVFLGVNILHLSYLLYKKRPVKIEKELSGMYRRLFEPLRVPPDLFRRLTGQFCMIQTLKKGQTYAAEDKTSVDDRLSILLKGKMKVSYRGHFLHNIYPCAFIDSPEFRSTQMHKGEKFQVTIIADDNCRFLCWSRERLTYFLESEPFLYEIFRYLIGKDITNKLYSLNDPTLNDKKAKKLEHQLSLCTQISMLEMRNSIASSSDSDDGLHQFLRGTSSMSSLHVSSPHQRASAKMKPIEEGAEDDDDVFEPASPNTLKVHQLP
Turning to B2, the “stoichiometry N” value in the data set “FRET or BRET” stood at 2.

B3: POPDC1-CFP (natural protein, human, UniProt Q8NE79 1-360, looked up)
chain: MNYTESSPLRESTAIGFTPELESIIPVPSNKTTCENWREIHHLVFHVANICFAVGLVIPTTLHLHMIFLRGMLTLGCTLYIVWATLYRCALDIMIWNSVFLGVNILHLSYLLYKKRPVKIEKELSGMYRRLFEPLRVPPDLFRRLTGQFCMIQTLKKGQTYAAEDKTSVDDRLSILLKGKMKVSYRGHFLHNIYPCAFIDSPEFRSTQMHKGEKFQVTIIADDNCRFLCWSRERLTYFLESEPFLYEIFRYLIGKDITNKLYSLNDPTLNDKKAKKLEHQLSLCTQISMLEMRNSIASSSDSDDGLHQFLRGTSSMSSLHVSSPHQRASAKMKPIEEGAEDDDDVFEPASPNTLKVHQLP
In the case of B3, the “stoichiometry N” value in data set [1] amounted to 2.

B4: POPDC1 p.S201F-VC155 (natural protein, human, UniProt Q8NE79 1-360, looked up)
chain: MNYTESSPLRESTAIGFTPELESIIPVPSNKTTCENWREIHHLVFHVANICFAVGLVIPTTLHLHMIFLRGMLTLGCTLYIVWATLYRCALDIMIWNSVFLGVNILHLSYLLYKKRPVKIEKELSGMYRRLFEPLRVPPDLFRRLTGQFCMIQTLKKGQTYAAEDKTSVDDRLSILLKGKMKVSYRGHFLHNIYPCAFIDFPEFRSTQMHKGEKFQVTIIADDNCRFLCWSRERLTYFLESEPFLYEIFRYLIGKDITNKLYSLNDPTLNDKKAKKLEHQLSLCTQISMLEMRNSIASSSDSDDGLHQFLRGTSSMSSLHVSSPHQRASAKMKPIEEGAEDDDDVFEPASPNTLKVHQLP
With B4, in the data set with POPDC2-VN155, the “BiFC signal relative to the wild-type pair” value amounted to 0.43.

B5: POPDC1 p.Q153X-VC155 (domain or fragment, human, UniProt Q8NE79 1-152, looked up)
chain: MNYTESSPLRESTAIGFTPELESIIPVPSNKTTCENWREIHHLVFHVANICFAVGLVIPTTLHLHMIFLRGMLTLGCTLYIVWATLYRCALDIMIWNSVFLGVNILHLSYLLYKKRPVKIEKELSGMYRRLFEPLRVPPDLFRRLTGQFCMI
As for B5, the “BiFC signal relative to the wild-type pair” value with POPDC2-VN155 is 0.248.

The record behind these values is paper doi:10.1101/2022.10.13.511879 (bioRxiv, 2022).
